Source: IntAct's records for PubMed 31515488

B1: Beta-crystallin A4 (Homo sapiens), P53673 (parent)
chain: MTLQCTKSAGPWKMVVWDEDGFQGRRHEFTAECPSVLELGFETVRSLKVLSGAWVGFEHAGFQGQQYILERGEYPSWDAWGGNTAYPAERLTSFRPAACANHRDSRLTIFEQENFLGKKGELSDDYPSLQAMGWEGNEVGSFHVHSGAWVCSQFPGYRGFQYVLECDHHSGDYKHFREWGSHAPTFQVQSIRRIQQ
B2: Syntaxin-12 (Homo sapiens), Q86Y82 (parent)
chain: MSYGPLDMYRNPGPSGPQLRDFSSIIQTCSGNIQRISQATAQIKNLMSQLGTKQDSSKLQENLQQLQHSTNQLAKETNELLKELGSLPLPLSTSEQRQQRLQKERLMNDFSAALNNFQAVQRRVSEKEKESIARARAGSRLSAEERQREEQLVSFDSHEEWNQMQSQEDEVAITEQDLELIKERETAIRQLEADILDVNQIFKDLAMMIHDQGDLIDSIEANVESSEVHVERATEQLQRAAYYQKKSRKKMCILVLVLSVIILILGLIIWLVYKTK
B3: Homeobox protein VENTX (Homo sapiens), O95231 (parent)
chain: MRLSSSPPRGPQQLSSFGSVDWLSQSSCSGPTHTPRPADFSLGSLPGPGQTSGAREPPQAVSIKEAAGSSNLPAPERTMAGLSKEPNTLRAPRVRTAFTMEQVRTLEGVFQHHQYLSPLERKRLAREMQLSEVQIKTWFQNRRMKHKRQMQDPQLHSPFSGSLHAPPAFYSTSSGLANGLQLLCPWAPLSGPQALMLPPGSFWGLCQVAQEALASAGASCCGQPLASHPPTPGRPSLGPALSTGPRGLCAMPQTGDAF
partner: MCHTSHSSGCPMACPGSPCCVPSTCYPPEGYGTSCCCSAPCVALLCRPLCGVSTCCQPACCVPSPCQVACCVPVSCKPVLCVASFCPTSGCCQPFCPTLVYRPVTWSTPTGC
B4: Peroxisomal bifunctional enzyme (Homo sapiens), Q08426 (parent)
chain: MAEYTRLHNALALIRLRNPPVNAISTTLLRDIKEGLQKAVIDHTIKAIVICGAEGKFSAGADIRGFSAPRTFGLTLGHVVDEIQRNEKPVVAAIQGMAFGGGLELALGCHYRIAHAEAQVGLPEVTLGLLPGARGTQLLPRLTGVPAALDLITSGRRILADEALKLGILDKVVNSDPVEEAIRFAQRVSDQPLESRRLCNKPIQSLPNMDSIFSEALLKMRRQHPGCLAQEACVRAVQAAVQYPYEVGIKKEEELFLYLLQSGQARALQYAFFAERKANKWSTPSGASWKTASARPVSSVGVVGLGTMGRGIVISFARARIPVIAVDSDKNQLATANKMITSVLEKEASKMQQSGHPWSGPKPRLTSSVKELGGVDLVIEAVFEEMSLKKQVFAELSAVCKPEAFLCTNTSALDVDEIASSTDRPHLVIGTHFFSPAHVMKLLEVIPSQYSSPTTIATVMNLSKKIKKIGVVVGNCFGFVGNRMLNPYYNQAYFLLEEGSKPEEVDQVLEEFGFKMGPFRVSDLAGLDVGWKSRKGQGLTGPTLLPGTPARKRGNRRYCPIPDVLCELGRFGQKTGKGWYQYDKPLGRIHKPDPWLSKFLSRYRKTHHIEPRTISQDEILERCLYSLINEAFRILGEGIAASPEHIDVVYLHGYGWPRHKGGPMFYASTVGLPTVLEKLQKYYRQNPDIPQLEPSDYLKKLASQGNPPLKEWQSLAGSPSSKL
partner: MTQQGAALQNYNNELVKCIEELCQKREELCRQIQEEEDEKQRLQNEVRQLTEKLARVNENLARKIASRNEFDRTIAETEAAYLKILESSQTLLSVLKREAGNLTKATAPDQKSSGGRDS
B5: Myogenin (Homo sapiens), P15173 (parent)
chain: MELYETSPYFYQEPRFYDGENYLPVHLQGFEPPGYERTELTLSPEAPGPLEDKGLGTPEHCPGQCLPWACKVCKRKSVSVDRRRAATLREKRRLKKVNEAFEALKRSTLLNPNQRLPKVEILRSAIQYIERLQALLSSLNQEERDLRYRGGGGPQPGVPSECSSHSASCSPEWGSALEFSANPGDHLLTADPTDAHNLHSLTSIVDSITVEDVSVAFPDETMPN
B6: Leucine-rich repeat-containing protein 45 (Homo sapiens), Q96CN5 (parent)
chain: MEEFRRSYSRLCRESGAEPQEAVLQQLHQLPRGRLDLATQSLTVETCRALGKLLPRETLCTELVLSDCMLSEEGATLLLRGLCANTVLRFLDLKGNNLRAAGAEALGKLLQQNKSIQSLTLEWNSLGTWDDAFATFCGGLAANGALQRLDLRNNQISHKGAEELALALKGNTTLQQLDLRWNNVGLLGGRALMNCLPSNRTLWRLDLAGNNIPGDVLRAVEQAMGHSQDRLTTFQENQARTHVLSKEVQHLREEKSKQFLDLMETIDKQREEMAKSSRASAARVGQLQEALNERHSIINALKAKLQMTEAALALSEQKAQDLGELLATAEQEQLSLSQRQAKELKLEQQEAAERESKLLRDLSAANEKNLLLQNQVDELERKFRCQQEQLFQTRQEMTSMSAELKMRAIQAEERLDMEKRRCRQSLEDSESLRIKEVEHMTRHLEESEKAMQERVQRLEAARLSLEEELSRVKAAALSERGQAEEELIKAKSQARLEEQQRLAHLEDKLRLLAQARDEAQGACLQQKQVVAEAQTRVSQLGLQVEGLRRRLEELQQELSLKDQERVAEVSRVRVELQEQNGRLQAELAAQEALREKAAALERQLKVMASDHREALLDRESENASLREKLRLREAEIARIRDEEAQRASFLQNAVLAYVQASPVRTLSPPK
partner: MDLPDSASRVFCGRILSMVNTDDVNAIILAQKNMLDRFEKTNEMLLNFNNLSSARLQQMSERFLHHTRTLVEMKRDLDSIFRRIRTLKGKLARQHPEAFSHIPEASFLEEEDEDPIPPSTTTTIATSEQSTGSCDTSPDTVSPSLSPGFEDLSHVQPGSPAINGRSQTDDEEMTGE
B7: Tyrosine aminotransferase (Homo sapiens), P17735 (parent)
chain: MDPYMIQMSSKGNLPSILDVHVNVGGRSSVPGKMKGRKARWSVRPSDMAKKTFNPIRAIVDNMKVKPNPNKTMISLSIGDPTVFGNLPTDPEVTQAMKDALDSGKYNGYAPSIGFLSSREEIASYYHCPEAPLEAKDVILTSGCSQAIDLCLAVLANPGQNILVPRPGFSLYKTLAESMGIEVKLYNLLPEKSWEIDLKQLEYLIDEKTACLIVNNPSNPCGSVFSKRHLQKILAVAARQCVPILADEIYGDMVFSDCKYEPLATLSTDVPILSCGGLAKRWLVPGWRLGWILIHDRRDIFGNEIRDGLVKLSQRILGPCTIVQGALKSILCRTPGEFYHNTLSFLKSNADLCYGALAAIPGLRPVRPSGAMYLMVGIEMEHFPEFENDVEFTERLVAEQSVHCLPATCFEYPNFIRVVITVPEVMMLEACSRIQEFCEQHYHCAEGSQEECDK
B8: Protein NOXP20 (Homo sapiens), Q8IWE2 (parent)
chain: MSDDAGDTLATGDKAEVTEMPNSDSLPEDAEVHCDSAAVSHEPTPADPRGEGHENAAVQGAGAAAIGPPVQPQDANALEPPLNGDVTEDTLAECIDSVSLEAEPRSEIPLQEQNYLAVDSPPSGGGWAGWGSWGKSLLSSASATVGHGLTAVKEKAGATLRIHGVNSGSSEGAQPNTENGVPEITDAATDQGPAESPPTSPSSASRGMLSAITNVVQNTGKSVLTGGLDALEFIGKKTMNVLAESDPGFKRTKTLMERTVSLSQMLREAKEKEKQRLAQQLTMERTAHYGMLFDEYQGLSHLEALEILSNESESKVQSFLASLDGEKLELLKNDLISIKDIFAAKELENEENQEEQGLEEKGEEFARMLTELLFELHVAATPDKLNKAMKRAHDWVEEDQTVVSVDVAKVSEEETKKEEKEEKSQDPQEDKKEEKKTKTIEEVYMSSIESLAEVTARCIEQLHKVAELILHGQEEEKPAQDQAKVLIKLTTAMCNEVASLSKKFTNSLTTVGSNKKAEVLNPMISSVLLEGCNSTTYIQDAFQLLLPVLQVSHIQTSCLKAQP
partner: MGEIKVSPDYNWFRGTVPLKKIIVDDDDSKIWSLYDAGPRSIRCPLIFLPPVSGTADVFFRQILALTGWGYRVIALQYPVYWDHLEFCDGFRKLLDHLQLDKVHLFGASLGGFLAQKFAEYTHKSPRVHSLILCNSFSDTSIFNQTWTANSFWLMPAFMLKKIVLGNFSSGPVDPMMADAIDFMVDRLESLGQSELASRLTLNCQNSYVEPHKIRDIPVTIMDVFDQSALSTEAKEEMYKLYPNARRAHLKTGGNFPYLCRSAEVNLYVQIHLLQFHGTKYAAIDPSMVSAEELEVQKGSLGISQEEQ
B9: STAM-binding protein (Homo sapiens), O95630 (parent)
chain: MSDHGDVSLPPEDRVRALSQLGSAVEVNEDIPPRRYFRSGVEIIRMASIYSEEGNIEHAFILYNKYITLFIEKLPKHRDYKSAVIPEKKDTVKKLKEIAFPKAEELKAELLKRYTKEYTEYNEEKKKEAEELARNMAIQQELEKEKQRVAQQKQQQLEQEQFHAFEEMIRNQELEKERLKIVQEFGKVDPGLGGPLVPDLEKPSLDVFPTLTVSSIQPSDCHTTVRPAKPPVVDRSLKPGALSNSESIPTIDGLRHVVVPGRLCPQFLQLASANTARGVETCGILCGKLMRNEFTITHVLIPKQSAGSDYCNTENEEELFLIQDQQGLITLGWIHTHPTQTAFLSSVDLHTHCSYQMMLPESVAIVCSPKFQETGFFKLTDHGLEEISSCRQKGFHPHSKDPPLFCSCSHVTVVDRAVTITDLR
partner: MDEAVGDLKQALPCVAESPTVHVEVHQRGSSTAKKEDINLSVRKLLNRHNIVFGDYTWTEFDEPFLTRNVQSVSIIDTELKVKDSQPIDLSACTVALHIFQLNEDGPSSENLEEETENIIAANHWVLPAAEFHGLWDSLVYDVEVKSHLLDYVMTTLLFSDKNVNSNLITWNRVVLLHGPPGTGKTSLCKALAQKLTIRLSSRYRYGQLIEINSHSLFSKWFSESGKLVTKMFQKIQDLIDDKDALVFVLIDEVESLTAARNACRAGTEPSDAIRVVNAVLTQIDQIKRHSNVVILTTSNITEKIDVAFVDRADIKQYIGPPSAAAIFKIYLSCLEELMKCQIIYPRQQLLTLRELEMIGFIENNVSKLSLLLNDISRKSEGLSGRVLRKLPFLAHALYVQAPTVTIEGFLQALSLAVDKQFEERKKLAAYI
B10: Fas-activated serine/threonine kinase (Homo sapiens), Q14296-1 (parent)
chain: MRRPRGEPGPRAPRPTEGATCAGPGESWSPSPNSMLRVLLSAQTSPARLSGLLLIPPVQPCCLGPSKWGDRPVGGGPSAGPVQGLQRLLEQAKSPGELLRWLGQNPSKVRAHHYSVALRRLGQLLGSRPRPPPVEQVTLQDLSQLIIRNCPSFDIHTIHVCLHLAVLLGFPSDGPLVCALEQERRLRLPPKPPPPLQPLLRGGQGLEAALSCPRFLRYPRQHLISSLAEARPEELTPHVMVLLAQHLARHRLREPQLLEAIAHFLVVQETQLSSKVVQKLVLPFGRLNYLPLEQQFMPCLERILAREAGVAPLATVNILMSLCQLRCLPFRALHFVFSPGFINYISGTPHALIVRRYLSLLDTAVELELPGYRGPRLPRRQQVPIFPQPLITDRARCKYSHKDIVAEGLRQLLGEEKYRQDLTVPPGYCTDFLLCASSSGAVLPVRTQDPFLPYPPRSCPQGQAASSATTRDPAQRVVLVLRERWHFCRDGRVLLGSRALRERHLGLMGYQLLPLPFEELESQRGLPQLKSYLRQKLQALGLRWGPEGG

Variants of: B1
Details: with cep76_human CEP76, Q8TAP6
Sequence of cep76_human CEP76, Q8TAP6 (Q8TAP6 whole entry): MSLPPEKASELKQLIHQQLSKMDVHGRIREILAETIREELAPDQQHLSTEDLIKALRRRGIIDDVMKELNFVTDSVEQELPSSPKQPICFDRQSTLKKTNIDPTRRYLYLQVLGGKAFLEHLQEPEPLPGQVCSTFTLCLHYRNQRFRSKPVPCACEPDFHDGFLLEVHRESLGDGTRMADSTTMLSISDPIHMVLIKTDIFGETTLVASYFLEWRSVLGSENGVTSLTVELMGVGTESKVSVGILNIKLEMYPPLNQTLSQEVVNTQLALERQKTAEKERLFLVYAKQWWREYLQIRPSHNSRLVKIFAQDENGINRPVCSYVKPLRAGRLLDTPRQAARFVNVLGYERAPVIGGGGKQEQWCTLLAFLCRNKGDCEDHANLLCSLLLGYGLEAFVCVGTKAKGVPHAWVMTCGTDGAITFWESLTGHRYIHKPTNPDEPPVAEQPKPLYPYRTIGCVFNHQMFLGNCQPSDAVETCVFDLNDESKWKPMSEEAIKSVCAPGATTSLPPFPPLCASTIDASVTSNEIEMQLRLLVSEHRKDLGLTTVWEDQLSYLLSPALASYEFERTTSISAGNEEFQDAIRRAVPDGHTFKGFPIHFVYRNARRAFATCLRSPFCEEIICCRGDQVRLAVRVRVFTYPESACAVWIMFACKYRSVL

Row | effect of a mutation on the interaction | Variant
1 | with no effect | R103C

Variants of: B2
Details: with dtx2_human DTX2, Q86UW9
Sequence of dtx2_human DTX2, Q86UW9 (Q86UW9 whole entry): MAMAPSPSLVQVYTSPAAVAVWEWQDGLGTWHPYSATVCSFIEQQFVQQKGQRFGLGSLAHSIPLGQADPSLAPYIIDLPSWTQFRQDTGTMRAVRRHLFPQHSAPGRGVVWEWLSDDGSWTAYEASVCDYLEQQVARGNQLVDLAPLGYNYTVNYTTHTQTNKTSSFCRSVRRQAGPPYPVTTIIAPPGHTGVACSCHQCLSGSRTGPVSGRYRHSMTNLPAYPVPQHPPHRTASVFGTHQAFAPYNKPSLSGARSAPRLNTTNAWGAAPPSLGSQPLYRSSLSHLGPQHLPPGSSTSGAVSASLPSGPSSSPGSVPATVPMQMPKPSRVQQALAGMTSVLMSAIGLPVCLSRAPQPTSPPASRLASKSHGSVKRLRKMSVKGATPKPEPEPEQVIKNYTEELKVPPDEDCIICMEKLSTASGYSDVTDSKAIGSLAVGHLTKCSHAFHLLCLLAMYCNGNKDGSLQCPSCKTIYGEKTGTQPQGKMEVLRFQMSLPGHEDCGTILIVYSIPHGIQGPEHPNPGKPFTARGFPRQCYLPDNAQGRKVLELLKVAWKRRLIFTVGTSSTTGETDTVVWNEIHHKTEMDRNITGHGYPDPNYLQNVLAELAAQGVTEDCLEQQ

Row | effect of a mutation on the interaction | Variant
2 | with no effect | P88R

Variants of: B2
Details: with stx4_human STX4, Q12846
Sequence of stx4_human STX4, Q12846 (Q12846 whole entry): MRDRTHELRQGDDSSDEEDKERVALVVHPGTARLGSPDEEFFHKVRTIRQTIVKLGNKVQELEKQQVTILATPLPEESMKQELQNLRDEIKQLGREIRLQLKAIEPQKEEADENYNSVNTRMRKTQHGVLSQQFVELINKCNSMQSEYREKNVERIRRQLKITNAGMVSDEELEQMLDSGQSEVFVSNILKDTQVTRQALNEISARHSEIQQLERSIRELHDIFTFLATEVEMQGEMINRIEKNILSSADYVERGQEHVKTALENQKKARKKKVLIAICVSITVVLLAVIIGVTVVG

Row | effect of a mutation on the interaction | Variant
3 | with no effect | P88R

Variants of: B3
Details: with kr124_human KRTAP12-4, P60329

Row | effect of a mutation on the interaction | Variant
4 | with no effect | A226E
5 | with no effect | L42P
6 | with no effect | M251V

Variants of: B4
Details: with ssna1_human SSNA1, O43805

Row | effect of a mutation on the interaction | Variant
7 | with no effect | Q685K
8 | with no effect | R556G

Variants of: B5
Details: with if4e2_human EIF4E2, O60573
Sequence of if4e2_human EIF4E2, O60573 (O60573 whole entry): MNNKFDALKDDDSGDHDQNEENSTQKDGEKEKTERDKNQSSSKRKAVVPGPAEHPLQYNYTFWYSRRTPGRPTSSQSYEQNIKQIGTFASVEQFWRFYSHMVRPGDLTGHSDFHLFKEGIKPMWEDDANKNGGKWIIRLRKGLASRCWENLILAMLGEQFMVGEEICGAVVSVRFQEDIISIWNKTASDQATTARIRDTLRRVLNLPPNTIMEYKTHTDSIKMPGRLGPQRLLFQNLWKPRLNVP

Row | effect of a mutation on the interaction | Variant
9 | disrupting interaction strength | A181T
10 | with no effect | P49H

Variants of: B5
Details: with cc28a_human CCDC28A

Row | effect of a mutation on the interaction | Variant
11 | disrupting interaction strength | A181T

Variants of: B5
Details: with mlh1_human MLH1, P40692
Sequence of mlh1_human MLH1, P40692 (P40692 whole entry): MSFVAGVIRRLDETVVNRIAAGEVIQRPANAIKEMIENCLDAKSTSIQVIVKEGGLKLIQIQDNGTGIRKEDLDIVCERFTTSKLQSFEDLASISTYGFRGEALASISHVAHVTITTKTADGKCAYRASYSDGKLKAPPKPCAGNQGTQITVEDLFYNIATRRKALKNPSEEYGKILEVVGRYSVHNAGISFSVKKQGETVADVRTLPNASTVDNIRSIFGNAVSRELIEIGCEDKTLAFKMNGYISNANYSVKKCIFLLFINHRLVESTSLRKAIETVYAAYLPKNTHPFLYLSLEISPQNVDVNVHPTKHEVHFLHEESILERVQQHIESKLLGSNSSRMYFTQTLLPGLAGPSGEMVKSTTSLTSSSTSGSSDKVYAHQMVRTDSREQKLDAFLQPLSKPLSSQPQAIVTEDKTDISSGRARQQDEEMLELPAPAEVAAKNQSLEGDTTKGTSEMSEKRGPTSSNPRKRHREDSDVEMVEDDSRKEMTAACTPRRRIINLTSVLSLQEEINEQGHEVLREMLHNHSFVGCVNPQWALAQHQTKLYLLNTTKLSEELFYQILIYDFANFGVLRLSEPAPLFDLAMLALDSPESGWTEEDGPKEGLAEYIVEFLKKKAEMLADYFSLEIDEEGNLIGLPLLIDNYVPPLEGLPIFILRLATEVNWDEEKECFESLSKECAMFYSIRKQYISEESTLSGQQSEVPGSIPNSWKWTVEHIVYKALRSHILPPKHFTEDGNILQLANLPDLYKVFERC

Row | effect of a mutation on the interaction | Variant
12 | disrupting interaction strength | A181T
13 | with no effect | P49H

Variants of: B5
Details: with fril_human FTL

Row | effect of a mutation on the interaction | Variant
14 | with no effect | P49H
15 | with no effect | R147C

Variants of: B6
Details: with kxdl1_human KXD1, Q9BQD3

Row | effect of a mutation on the interaction | Variant
16 | with no effect | R480H
17 | with no effect | A365V

Variants of: B7
Details: with ube3a_human UBE3A

Row | effect of a mutation on the interaction | Variant
18 | disrupting interaction strength | R119W

Variants of: B8
Details: with spg21_human SPG21, Q9NZD8

Row | effect of a mutation on the interaction | Variant
19 | with no effect | S40L

Variants of: B9
Details: with pch2_human TRIP13, Q15645

Row | effect of a mutation on the interaction | Variant
20 | disrupting interaction strength | Q155H
21 | with no effect | R255H

Variants of: B10
Details: with wipf1_human WIPF1, O43516
Sequence of wipf1_human WIPF1, O43516 (O43516 whole entry): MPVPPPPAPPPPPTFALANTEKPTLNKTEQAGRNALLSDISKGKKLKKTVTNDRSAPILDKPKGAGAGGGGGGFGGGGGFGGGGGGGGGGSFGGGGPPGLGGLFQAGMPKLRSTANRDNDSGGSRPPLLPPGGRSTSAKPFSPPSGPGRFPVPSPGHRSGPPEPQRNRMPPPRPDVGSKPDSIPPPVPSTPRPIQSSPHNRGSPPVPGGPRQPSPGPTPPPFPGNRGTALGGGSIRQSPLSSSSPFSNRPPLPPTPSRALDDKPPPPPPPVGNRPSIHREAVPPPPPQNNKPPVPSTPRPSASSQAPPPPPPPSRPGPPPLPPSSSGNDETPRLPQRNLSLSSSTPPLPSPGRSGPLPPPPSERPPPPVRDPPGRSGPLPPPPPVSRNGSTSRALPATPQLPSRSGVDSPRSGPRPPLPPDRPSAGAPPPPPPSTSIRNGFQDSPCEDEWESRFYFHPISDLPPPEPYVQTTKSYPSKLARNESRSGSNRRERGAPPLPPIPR

Row | effect of a mutation on the interaction | Variant
22 | disrupting interaction strength | V424L

Variants of: B10
Details: with mdfi_human MDFI

Row | effect of a mutation on the interaction | Variant
23 | disrupting interaction strength | V424L
